Measured values as given in patent US20250197491A1 (MACOMICS, published 2025).

Assays:
Human full length LILRB1 = target: T1, Human full length LILRB1 (human, UniProt Q8NHL6 24-650); assay: flow cytometry, displacement of PE-labelled HLA-A2, HLA-E and HLA-G multimers from HEK293 cells overexpressing LILRB1
T1 construct: Over-expressed on HEK293 cells for flow cytometry; also called LILRB1 on HEK293 cells; cell membrane embedded LILRB1
Method: (§1) To investigate if the Antibodies 1 to 5 could neutralize binding of other HLA-As to LILRB1 or to LILRB2, HEK293 cells overexpressing the receptors were incubated with constant concentrations of PE-labelled HLA-A2, HLA-E, and HLA-G multimers and increasing concentrations of Antibodies 1 to 5 or the reference antibodies. The ability to neutralize binding of HLA to the cells was determined by flow cytometry (FIG. 21). None of Antibodies 1 to 5 neutralized binding of HLA-A (A), HLA-E (B), and […] to LILRB1 protein, up to the concentrations of 100 nM, whereas Reference 1 antibody (LILRB1 specific) and Reference 3 antibody (LILRB1/2 specific) neutralized the binding with an IC₅₀ in the sub- or low-nM range. Similarly, none of Antibodies 1 to 5 neutralised efficiently the binding of HLA-A (E) and HLA-G (G). […] Reference Antibody 2 (LILRB2 specific) and Reference Antibody 3 (LILRB1/2 specific), inhibited the binding for all HLAs, with IC₅₀ with sub- or low-nM range.

Human full length LILRB2 = target: T2, Human full length LILRB2 (human, UniProt Q8N423 22-597); assay: flow cytometry, displacement of PE-labelled HLA-A2, HLA-E and HLA-G multimers from HEK293 cells overexpressing LILRB2
T2 construct: Over-expressed on HEK293 cells for flow cytometry; Also used here as the parent protein of the D3-D4 peptide microarrays; also called LILRB2 on HEK293 cells
Method: as §1

T2 sequence (Q8N423 other isoform, or with tags, fused parts or gaps limits assumed): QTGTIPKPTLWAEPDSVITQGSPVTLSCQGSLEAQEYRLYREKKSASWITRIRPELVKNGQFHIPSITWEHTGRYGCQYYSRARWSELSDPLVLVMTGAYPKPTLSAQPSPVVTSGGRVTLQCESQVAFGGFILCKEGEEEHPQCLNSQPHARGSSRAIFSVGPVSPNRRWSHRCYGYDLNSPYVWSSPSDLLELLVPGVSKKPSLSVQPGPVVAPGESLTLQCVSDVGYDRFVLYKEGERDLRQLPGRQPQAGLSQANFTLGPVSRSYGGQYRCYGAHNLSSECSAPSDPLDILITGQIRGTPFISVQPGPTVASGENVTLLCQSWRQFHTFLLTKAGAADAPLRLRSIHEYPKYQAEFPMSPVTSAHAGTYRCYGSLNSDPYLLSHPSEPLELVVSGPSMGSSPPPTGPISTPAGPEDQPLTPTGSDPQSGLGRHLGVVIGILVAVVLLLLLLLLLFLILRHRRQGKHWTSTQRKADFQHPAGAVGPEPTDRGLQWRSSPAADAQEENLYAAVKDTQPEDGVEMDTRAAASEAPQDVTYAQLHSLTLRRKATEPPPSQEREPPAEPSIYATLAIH
T1 sequence (Q8NHL6 24-650 limits assumed): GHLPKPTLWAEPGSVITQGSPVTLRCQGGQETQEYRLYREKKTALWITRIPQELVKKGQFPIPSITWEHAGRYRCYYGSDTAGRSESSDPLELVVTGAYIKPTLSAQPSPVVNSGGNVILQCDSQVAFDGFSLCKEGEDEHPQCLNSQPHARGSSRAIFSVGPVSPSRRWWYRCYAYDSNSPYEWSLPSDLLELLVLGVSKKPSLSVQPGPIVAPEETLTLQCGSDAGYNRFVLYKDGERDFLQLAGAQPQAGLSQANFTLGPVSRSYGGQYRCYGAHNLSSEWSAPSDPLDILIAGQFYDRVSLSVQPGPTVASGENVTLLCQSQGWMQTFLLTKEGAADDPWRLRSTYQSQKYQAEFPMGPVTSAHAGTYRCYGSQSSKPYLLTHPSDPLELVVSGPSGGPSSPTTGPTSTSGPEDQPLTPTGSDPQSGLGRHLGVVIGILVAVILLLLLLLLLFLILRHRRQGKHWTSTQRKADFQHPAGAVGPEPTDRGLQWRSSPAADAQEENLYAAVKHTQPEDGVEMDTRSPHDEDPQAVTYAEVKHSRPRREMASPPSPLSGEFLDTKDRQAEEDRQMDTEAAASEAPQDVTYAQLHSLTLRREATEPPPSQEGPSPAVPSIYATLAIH

Binder | binding result (Human full length LILRB1) | binding result (Human full length LILRB2)
Reference Antibody 3 (anti-human LILRB1 and LILRB2 Ab) (antibody, V domains shown) VH: QVQLVQSGAEVKKPGASVKVSCKASGYTFTDYYINWVRQAPGQGLEWMGNVNPNDGGTTYNQKFKGRVTMTTDTSTSTAYMELRSLRSDDTAVYYCARREIYFYGTIYYYAMDYWGQGTLVTVSS VL: DIQLTQSPSFLSASVGDRVTITCRASESVDYYGNSFMYWYQQKPGKAPKLLIYFASNLESGVPSRFSGSGSGTEFTLTISSLQPEDFATYYCQQNNEDPWTFGGGTKVEIK | binds | binds
Reference antibody 2 (anti-human LILRB2 Ab) (antibody, human IgG4 S228P, lambda, V domains shown) VH: EVQLQQWGAGLLKPSETLSLTCAVYGGSFSGYYWSWIRQPPGKGLEWIGEINHAGSTNYNPSLKSRVTISVDTSKNQFSLKLSSVTAADTAVYYCARLPTRWVTTRYFDLWGRGTLVTVSS VL: ESVLTQPPSVSGAPGQRVTISCTGSSSNIGAGYDVHWYQQLPGTAPKLLIYGDSNRPSGVPDRFSVSKSGASASLAITGLQAEDEADYYCQSFDNSLSAYVFGGGTQLTVLG | – | binds
